We go through 1 molecule from paper PMC5078997, “Diversity-oriented synthetic strategy for developing a chemical modulator of protein–protein interaction” (Nature Communications, 2016).

The experiment has as its target T1, His-tagged human leucyl-tRNA synthetase (LRS) (human, UniProt Q9P2J5 1-1176).
T1 construct: leucyl-tRNA synthetase (LRS), human; also called His-LRS; human LRS; source: laboratory stocks; purified
Put plainly: ELISA; His-tagged human LRS coated on the plate (0.5 ng/ul in 100 mM carbonate buffer, pH 9.6, overnight at 4 °C), blocked with 5% BSA in PBS; GST-tagged human RagD added together with each compound for 3 h; detected with anti-GST and HRP-conjugated secondary antibody, TMB, absorbance at 450 nm. Particulars: both partners purified. Background: ELISA stands for enzyme-linked immunosorbent assay.

T1 sequence (Q9P2J5 whole entry): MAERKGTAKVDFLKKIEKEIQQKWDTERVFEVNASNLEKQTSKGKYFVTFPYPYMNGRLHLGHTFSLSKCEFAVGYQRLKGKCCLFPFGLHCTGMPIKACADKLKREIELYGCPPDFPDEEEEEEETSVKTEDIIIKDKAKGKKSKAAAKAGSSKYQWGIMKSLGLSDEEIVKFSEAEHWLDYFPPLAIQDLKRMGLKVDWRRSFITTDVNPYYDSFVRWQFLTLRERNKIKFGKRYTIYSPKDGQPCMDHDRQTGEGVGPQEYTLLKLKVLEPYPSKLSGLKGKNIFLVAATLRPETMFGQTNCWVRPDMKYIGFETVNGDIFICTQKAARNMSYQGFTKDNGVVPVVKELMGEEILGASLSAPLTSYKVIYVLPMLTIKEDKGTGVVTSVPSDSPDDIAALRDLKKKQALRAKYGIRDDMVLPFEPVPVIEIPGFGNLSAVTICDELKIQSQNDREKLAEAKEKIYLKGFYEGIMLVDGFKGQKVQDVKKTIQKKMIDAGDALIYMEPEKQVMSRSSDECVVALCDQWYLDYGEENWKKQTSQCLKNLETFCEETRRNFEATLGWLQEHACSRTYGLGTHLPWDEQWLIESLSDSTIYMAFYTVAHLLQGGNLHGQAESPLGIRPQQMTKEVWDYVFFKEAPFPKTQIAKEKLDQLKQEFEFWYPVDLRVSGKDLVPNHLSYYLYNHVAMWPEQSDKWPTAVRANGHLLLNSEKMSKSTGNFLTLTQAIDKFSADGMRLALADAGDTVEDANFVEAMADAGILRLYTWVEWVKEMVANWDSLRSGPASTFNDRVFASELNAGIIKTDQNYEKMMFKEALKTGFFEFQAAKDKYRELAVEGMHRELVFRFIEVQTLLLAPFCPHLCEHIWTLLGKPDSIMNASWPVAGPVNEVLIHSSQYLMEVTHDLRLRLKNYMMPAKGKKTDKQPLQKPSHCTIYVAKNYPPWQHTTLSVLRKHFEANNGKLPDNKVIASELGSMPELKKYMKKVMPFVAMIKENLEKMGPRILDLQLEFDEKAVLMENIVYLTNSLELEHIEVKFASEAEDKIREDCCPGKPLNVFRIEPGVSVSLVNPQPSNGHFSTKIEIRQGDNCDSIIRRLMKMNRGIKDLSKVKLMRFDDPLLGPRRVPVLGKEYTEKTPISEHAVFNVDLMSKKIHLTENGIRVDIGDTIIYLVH

B1: GST (glutathione-S-transferase)-tagged human Ras-related GTP-binding protein D (RagD) (natural protein, UniProt Q9NQL2 1-400, looked up)
chain: MSQVLGKPQPQDEDDAEEEEEEDELVGLADYGDGPDSSDADPDSGTEEGVLDFSDPFSTEVKPRILLMGLRRSGKSSIQKVVFHKMSPNETLFLESTNKICREDVSNSSFVNFQIWDFPGQIDFFDPTFDYEMIFRGTGALIFVIDSQDDYMEALARLHLTVTRAYKVNTDINFEVFIHKVDGLSDDHKIETQRDIHQRANDDLADAGLEKIHLSFYLTSIYDHSIFEAFSKVVQKLIPQLPTLENLLNIFISNSGIEKAFLFDVVSKIYIATDSTPVDMQTYELCCDMIDVVIDISCIYGLKEDGAGTPYDKESTAIIKLNNTTVLYLKEVTKFLALVCFVREESFERKGLIDYNFHCFRKAIHEVFEVRMKVVKSRKVQNRLQKKKRATPNGTPRVLL
notes: also called GST-tagged RagD; source: laboratory stocks; purified
For the molecule B1, the binding result is on record as “binds”.
